From US20250101137A1 (TRUSTEES OF TUFTS COLLEGE, published 2025)

Legend:
[1] = molecular target: Botulinum neurotoxin serotype A1 (BoNT/A) holotoxin (Clostridium botulinum, UniProt P0DPI0); test: method not stated
[2] = molecular target: Botulinum neurotoxin serotype B (BoNT/B) holotoxin (Clostridium botulinum, UniProt P10844); test: SPR; immobilised form of BoNT/B not stated

B1: scFv #7 (scFv)
scFv: SYELTQPPSMSVALGQTAKVTCQGDNLENFYVQWHQQKPGQAPVTVIFQDNKRPSGIPDRFSGSNSGNTATLTISGARTEDEADYYCQSGHSSIGGVFGSGTSLTVLGQPAAAGGGGSGGGGSGGGGSARQVQLQESGPSLVKPSQTLSLTCTVSGFSLTGNSVTWVRQAPGNVPEWLGGISRGGRTYYDTALKSRLSITRDTSKRQVSLSLSSVTTEDTAMYFCARSAYSTLYDYEYAADIYDWGPGLLVTVSSTSGAPVPYPDPLEPRAA
[1]
  Kd: ~1 nM

B2: ciB-H11 (VHH)
VHH: QVQLVETGGGLVQAGGSLRLSCAGSGRSFSAAVMGWFRQAPGKEREFVAALRQIIGSTHYADSVKGRFTISRDNAKNMLYLDMNSLKPTDTAAYYCTAGPPTMLDVSTDREYDTWGQGTQVTVSS
[2]
  Kd: 0.26 nM

B3: ciB-B9 (VHH)
VHH: TGGGLVQAGGSLRLSCTASGRTSSFYALAWFRQGPGKEREFVAAIGWIDGSTRYTDSAKGRFTISRDAAKNTMYLQMNSLKPEDTAVYSCTARTQYGGSSADPKNYGYWGQGTQVTVSA
[2]
  Kd: 23 nM
